Assay results taken from patent US20220363623A1, “IMAGING AND THERAPEUTIC COMPOSITIONS” (priority 2019, published 2022).
*1 amine or outer side, *2 acyl side, *3 side chain or, on linkers, in order; H or OH if unused. Where a SMILES comes first, the peptide text is derived from it. Bridges are numbered along the chain shown (N, C = ends). Side-chain parts run from the residue outwards. [ ]: non-standard residue; d: D form. The star is where a group is joined. X1 = O=C([C@@H](Cc1ccccc1)N(c1c(NCCCCCN(O)[*:3])c(=O)c1=O)[*:1])[*:2]; X2 = CC(=O)N(O)CCCCCNC(=O)CCC(=O)N(O)CCCCCN*; Thr(ol) = C[C@@H](O)[C@H](N)CO; Suc = O=C(CCC(=O)[*:2])[*:1]

What was measured:
[1] = system: AR42J (rat pancreatic cancer cell line) tumour; test: in vivo; parameters: species or system mice; conditions: mouse
Experimental: (§1) PET-CT imaging and Biodistribution of Octreotate/tide Tracers. Female Balb/c nude mice (age 9 weeks) were inoculated subcutaneously on the right flank with 3×10^6 AR42J cells in PBS:Matrigel (1:1). Mice were weighed and tumours measured twice weekly using electronic callipers. Tumour volume (mm^3) was calculated as length^2×width/2. 12 mice were assigned for imaging and biodistribution studies (tumour volumes: 170-550 mm^3). DFOSqTIDE (2.5 MBq) and DFOSqTATE (2.2 MBq) were administered intravenously by tail vein injection to mice on. At 1, 2, 4 and 18 hr post injection three mice were anaesthetised using isoflurane and placed on the imaging bed of a G8 PET/CT scanner (Perkin Elmer). A CT scan was performed which was immediately followed by a 10 min static PET scan. PET images were reconstructed using the maximal likelihood and expectation maximization (ML-EM) algorithm. PET images were analysed using VivoQuant (Invicro) and Tumour SUVmax, Tumour SUVmax/background average (TBR) and Tumour SUVmax/liver average (TLR) determined. After imaging at 18 hr mice were euthanised and selected tissues were excised, weighed and counted using a Capintec (Captus 4000e) gamma counter. A separate cohort of 3 mice was harvested at 1 hr post injection for biodistribution analysis. The data was analysed using GraphPad Prism 7 and differences between tracers analysed using a t-test.
(§2) AR42J (rat pancreatic cancer cell line) tumour bearing Balb/c nude mice as described above were injected intravenously via tail vein injection with ^89ZrDFOSqTATE or ^89ZrDFOSqTIDE (2-3 MBq). At 1, 2, 4 and 18 h post-injection the mice were anaesthetised with isoflurane and imaged over 10 min. At 1 hr after injection of DFOSqTIDE and DFOSqTATE, uptake into kidney, tumour and liver was observed. Representative PET images of mice injected with DFOSqTIDE and DFOSqTATE are shown in FIG. 12 and quantitation of the tumour SUVmax for each radiotracer is summarised in FIG. 13a.
(§3) ^68GaDFOSq-TIDE and ^68GaDFOSq-TATE tracers were injected (2-3 MBq, 1 μg, 0.5 nmol) intravenously via tail vein to AR42J (rat pancreatic cancer cell line) tumour bearing Balb/c nude mice. PET images were acquired at 1 and 2 h post-injection (FIGS. 15a and b). […] Quantification of the uptake in the images using Standard Uptake Value (SUVmax=radioactivity in a tissue/injected activity/BW) confirms the higher uptake for ^68GaDFOSq-TATE (1 h; SUVmax 1.8±0.2, compared to 1.21±0.20, FIG. 15c). The higher tumor uptake of ^68GaDFOSqTATE was also associated with a higher degree of tumor retention at 2 h post injection with only a 5% reduction in SUVmax whereas the tumor SUVmax for ^68GaDFOSqTIDE reduced by 30% ^68GaDFOSqTATE at 2 h post injection. Both tracers clear rapidly from the blood and there is low uptake in bone consistent with stable gallium-68 complexes as well as low uptake in muscle. Both tracers have significant uptake in the kidneys and bladder.

in vivo [2] = test: in vivo; parameters: species or system mice; conditions: female, Balb/c nude, mouse, iv, total radioactivity
Experimental: as §1, §2, §3

in vivo [3] = test: in vivo; parameters: species or system mice; conditions: female, Balb/c nude, mouse, iv, total radioactivity; remark: listed apart in the source
Experimental: as §1, with “t-test. The high tumor uptake was confirmed by an ex vivo biodistribution study in the same mouse model where mice were injected with either ^68GaDFOSq-TIDE and ^68GaDFOSq-TATE (2-3 MBq, 1 μg, 0.5 nmol) and then euthanised at either 1 h or 2 h after administration. The amount of injected activity per gram of tissue (% IA/g) in the tumor and major organs was quantified (FIG. 16).” for “t-test.”

DU145 cells = test: Tracer uptake in DU145 cells, a PSMA negative cell line; type: cell-based; conditions: 60 min, in words
Experimental: Cell binding and internalization studies. LNCap cells (150,000/well) were plated in RPMI 1640 medium containing 10% FBS into wells of a 24 well plate pre-coated with 0.05% poly-L-lysine and incubated overnight at 37° C. and 5% CO2. The following day cells were washed twice with PBS and incubated for 1 hour at 37° C. in 1 mL per well internalisation buffer (MEM, 1% FBS). The buffer was then replaced with 1 ml per well of a warmed solution containing 0.5 μCi ^89Zr-DFOsq-PSMA tracers in internalisation buffer. Cells were incubated in triplicate for 5, 15, 30 or 60 min at 37° C. and 5% CO2. […] Total protein content was determined in this fraction using a BCA protein assay kit (Pierce). A Perkin Elmer 2480 Wizard automatic gamma counter was then used to measure Zr-89 radioactivity in unbound, surface bound and internalised fractions. Surface bound and internalised fractions were expressed as percentage of total added radioactivity per mg of protein. Non-specific membrane binding and internalisation was determined by incubating cells with the ^89Zr-DFOSq-PSMA tracers in the presence of excess (10 μM) PMPA. ^89Zr-DFOSq-PSMA tracers uptake at 60 min was also determined in DU145 cells (seeded at 125,000 cells/well), a PSMA negative cell line. The raw data was analysed using GraphPad Prism 7.

LNCap cells = test: Cell binding and internalization studies in LNCap cells; type: cell-based, human
Experimental: Cell binding and internalization studies. LNCap cells (150,000/well) were plated in RPMI 1640 medium containing 10% FBS into wells of a 24 well plate pre-coated with 0.05% poly-L-lysine and incubated overnight at 37° C. and 5% CO2. The following day cells were washed twice with PBS and incubated for 1 hour at 37° C. in 1 mL per well internalisation buffer (MEM, 1% FBS). The buffer was then replaced with 1 ml per well of a warmed solution containing 0.5 μCi ^89Zr-DFOsq-PSMA tracers in internalisation buffer. Cells were incubated in triplicate for 5, 15, 30 or 60 min at 37° C. and 5% CO2. At each time point, cells were washed twice with ice-cold PBS and the washes collected for counting (unbound fraction). Cells were then incubated twice for 10 min in saline containing 10 μM PMPA and each wash collected for counting (surface bound fraction). The cells were then solubilised in 1 M NaOH (internalised fraction). Total protein content was determined in this fraction using a BCA protein assay kit (Pierce). A Perkin Elmer 2480 Wizard automatic gamma counter was then used to measure Zr-89 radioactivity in unbound, surface bound and internalised fractions. Surface bound and internalised fractions were expressed as percentage of total added radioactivity per mg of protein. Non-specific membrane binding and internalisation was determined by incubating cells with the ^89Zr-DFOSq-PSMA tracers in the presence of excess (10 μM) PMPA. ^89Zr-DFOSq-PSMA tracers uptake at 60 min was also determined in DU145 cells (seeded at 125,000 cells/well), a PSMA negative cell line. The raw data was analysed using GraphPad Prism 7.

in vivo [4] = test: in vivo; parameters: species or system mice; conditions: male, mouse, iv, total radioactivity
Experimental: PET-CT imaging and Biodistribution. Male Balb/c nude mice (age 8.5 weeks) or Male NSG mice (age 12 weeks) were inoculated subcutaneously on the right flank with 6×10^6 LNCap cells in PBS:Matrigel (1:1). Mice were weighed and tumours measured twice weekly using electronic callipers. Tumour volume (mm^3) was calculated as length×width×height×π/6. Mice were assigned for imaging and biodistribution studies (tumour volumes: 85-450 mm3). ^89Zr-DFOSq-PSMA tracers were then administered intravenously by tail vein injection to 6 mice. At 1, 2, 4 and 18 hr post injection three mice were anaesthetised using isoflurane and placed on the imaging bed of a G8 PET/CT scanner (Perkin Elmer). A CT scan was performed and followed immediately by a 10 min static PET scan. PET images were reconstructed using the maximal likelihood and expectation maximization (ML-EM) algorithm. PET Images were analysed using VivoQuant (Invicro) and Tumour SUVmax or Tumour SUVmax/background average (TBR) determined. After imaging at 18 hr mice were euthanised and selected tissues were excised, weighed and counted using a Capintec (Captus 4000e) gamma counter. A separate cohort of 3 mice was harvested at 1 hr post injection for biodistribution analysis as above. The data was analysed using GraphPad Prism 7 and differences between tracers analysed using a t-test.
^89Zr Labelled tracers: The ^89Zr radiolabelled PSMA tracers were injected intravenously via tail vein to LNCaP (human PSMA expressing prostate cancer cell line) tumour bearing mice. At 1, 2, 4 and 18 h post-injection the mice were anaesthetised with isoflurane and imaged over 10 min. The representative PET images of mice injected with ^89Zr radiolabelled PSMA tracers at 1 and 18 hr are shown in FIG. 1 and quantitation of the Tumour SUVmax for each tracer is shown in FIG. 2a. […] There was a trend for higher tumour SUVmax for (4) tracer compared to all other tracers at all time points. […] A comparison of tumour uptake values is shown in FIG. 2b and the tissue biodistribution data for the tracers at 1 and 18 hr is summarised in FIG. 3.
^68Ga Labelled tracers: Representative PET images of mice injected with ^68Ga(1) and ^68Ga(4) are shown in FIG. 4 and quantitation of the tumour SUVmax is shown in FIG. 5a. […] Tumour uptake of ^68Ga(4) was 1.6 and 1.8 fold higher than ^68Ga(1) at 1 and 2 hr p.i., respectively. This is consistent with the biodistribution results where tumour % ID/g for ^68Ga(4) was higher than ^68Ga(1) at 1 hr (10.8±1.3 vs 6.5±0.4) and at 2.5 hr (8.6±1.0 vs 4.1±0.5) p.i. […] (6.5±0.4% ID/g at 1 hr vs 4.1±0.5% ID/g at 2.5 hr). In contrast, there was no significant change in ^68Ga(4) tumour retention at 1 and 2.5 p.i. (10.8±1.3% ID/g vs […], FIG. 5b).

[5] = system: AR42J (rat pancreatic cancer cell line) tumour; test: in vivo; parameters: species or system mice; conditions: female, Balb/c nude, mouse, iv, 18 h
Experimental: as §1, with “t-test. The high tumor uptake was confirmed by an ex vivo biodistribution study in the same mouse model where mice were injected with either ^68GaDFOSq-TIDE and ^68GaDFOSq-TATE (2-3 MBq, 1 μg, 0.5 nmol) and then euthanised at either 1 h or 2 h after administration. The amount of injected activity per gram of tissue (% IA/g) in the tumor and major organs was quantified (FIG. 16).” for “t-test.”

[6] = Tumour uptake % IA/g 1 h post injection

## CC(=O)N(O)CCCCCNC(=O)CCC(=O)N(O)CCCCCNC(=O)CCC(=O)N(O)CCCCCNc1c(N[C@H](Cc2ccccc2)C(=O)N[C@H]2CSSC[C@@H](C(=O)N[C@H](C(=O)O)[C@@H](C)O)NC(=O)[C@H]([C@@H](C)O)NC(=O)[C@H](CCCCN)NC(=O)[C@@H](Cc3c[nH]c4ccccc34)NC(=O)[C@H](Cc3ccc(O)cc3)NC2=O)c(=O)c1=O (68Ga complex, metal not drawn) [^68GaDFOSqTATE] (H-[X1]([Suc-X2])CY[dW]KTCT-OH; disulfide 2-7)
[1]
  Reduction in tumor SUVmax at 2 h post injection: 5%
In vivo [2]
  SUV at 1 h: 1.8 ± 0.2 SUV
In vivo [3]; Tumor uptake % ID/g 2 h post injection
  tissue uptake at 2 h: 9.22 ± 0.92 %ID/g
In vivo [3]; [6]
  tissue uptake at 1 h: 9.8 ± 2.33 %ID/g
In vivo [3]; Uptake in the kidneys
  tissue uptake at 1 h: 16 ± 3.27 %ID/g

## CC(=O)N(O)CCCCCNC(=O)CCC(=O)N(O)CCCCCNC(=O)CCC(=O)N(O)CCCCCNc1c(N[C@H](Cc2ccccc2)C(=O)N[C@H]2CSSC[C@@H](C(=O)N[C@H](CO)[C@@H](C)O)NC(=O)[C@H]([C@@H](C)O)NC(=O)[C@H](CCCCN)NC(=O)[C@@H](Cc3c[nH]c4ccccc34)NC(=O)[C@H](Cc3ccc(O)cc3)NC2=O)c(=O)c1=O (68Ga complex, metal not drawn) [^68GaDFOSqTIDE] (H-[X1]([Suc-X2])CY[dW]KTC[Thr(ol)]; disulfide 2-7)
[1]
  Reduction in tumor SUVmax at 2 h post injection: 30%
In vivo [2]
  SUV at 1 h: 1.21 ± 0.2 SUV
In vivo [3]; [6]
  tissue uptake at 1 h: 8.81 ± 1.03 %ID/g
In vivo [3]; Tumour uptake % IA/g 2 h post injection
  tissue uptake at 2 h: 4.4 ± 1.1 %ID/g
In vivo [3]; Uptake in the kidneys
  tissue uptake at 1 h: 37.6 ± 3.5 %ID/g

## CC(=O)N(O)CCCCCNC(=O)CCC(=O)N(O)CCCCCNC(=O)CCC(=O)N(O)CCCCCNc1c(NCc2ccc(C(=O)NCCCCC(NC(=O)NC(CCC(=O)O)C(=O)O)C(=O)O)cc2)c(=O)c1=O (centres unmarked) [(1), DFOSq-PhPSMA ligand]
DU145 cells
  Binding in DU145, PSMA negative cell line: Minimal binding
LNCap cells; 89Zr tracers, 60 min, 37° C.
  Cell Uptake % AR/mg protein (60 min) internalized: 7 % AR/mg protein
LNCap cells; excess (10 μM) PMPA
  Internalised activity in the presence of excess PMPA: up to 5 % AR/mg protein
LNCap cells; presence and absence of excess PMPA, all timepoints
  Surface binding: 2 % AR/mg protein
In vivo [4]; Tumour Uptake % ID/g 1 h pi
  tissue uptake at 1 h: 5.4 %ID/g
In vivo [4]; Tumour Uptake % ID/g 18 h pi
  tissue uptake at 18 h: 2.2 %ID/g

## CC(=O)N(O)CCCCCNC(=O)CCC(=O)N(O)CCCCCNC(=O)CCC(=O)N(O)CCCCCNc1c(N[C@H](Cc2ccccc2)C(=O)N[C@H]2CSSC[C@@H](C(=O)N[C@H](CO)[C@@H](C)O)NC(=O)[C@H]([C@@H](C)O)NC(=O)[C@H](CCCCN)NC(=O)[C@@H](Cc3c[nH]c4ccccc34)NC(=O)[C@H](Cc3ccc(O)cc3)NC2=O)c(=O)c1=O [DFOSqTIDE] (H-[X1]([Suc-X2])CY[dW]KTC[Thr(ol)]; disulfide 2-7)
[1]
  Tumour SUVmax Clearance %: 55%
[5]
  Tumour Uptake % ID/g 18 h pi: 1.5±0.1 % ID/g
In vivo [3]; Tumour Uptake % ID/g 1 h pi
  tissue uptake at 1 h: 3.4 ± 0.4 %ID/g
In vivo [3]; Tumour Uptake % ID/g 18 h pi
  tissue uptake at 18 h: 1.7 ± 0.1 %ID/g
